# T1: SrbA161-267 (bHLHZ DNA-binding domain) (Aspergillus fumigatus, UniProt Q4WIN1 161-267)
# T1 sequence: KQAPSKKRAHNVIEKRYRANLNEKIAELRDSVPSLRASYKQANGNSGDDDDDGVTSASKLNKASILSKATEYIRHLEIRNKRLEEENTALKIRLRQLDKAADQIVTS
# B1: srbApmm0 (srbA -735 to -726) (dsDNA)
# DNA 1: TTCCCGCGATCATACGATGTGCTCCG
# DNA 2: CGGAGCACATCGTATGATCGCGGGAA
# B2: srbApmm0mut (srbA* mutated site) (dsDNA)
# DNA 1: TTCCCGCGATATAACATAGTGCTCCG
# DNA 2: CGGAGCACTATGTTATATCGCGGGAA
# B3: hapXpmm11 (hapX -774 to -783) (dsDNA)
# DNA 1: GCCTTTGAATGGGAGGATTCTTTATT
# DNA 2: AATAAAGAATCCTCCCATTCAAAGGC
# B4: hapXpmm12 (hapX -1340 to -1331) (dsDNA)
# DNA 1: CAGATAAGATCAGATGATGAAGGGAT
# DNA 2: ATCCCTTCATCATCTGATCTTATCTG
# B5: hemApmm11 (hemA -527 to -518) (dsDNA)
# DNA 1: TCCCCAGTATCGGATCATACGGCTAC
# DNA 2: GTAGCCGTATGATCCGATACTGGGGA
# B6: hemApmm12 (hemA -338 to -347) (dsDNA)
# DNA 1: CTGAGGCAATGAGGCGATGAGGCAAC
# DNA 2: GTTGCCTCATCGCCTCATTGCCTCAG
# Target: T1, SrbA161-267 (bHLHZ DNA-binding domain)
# Assay: SPR; SPR kinetics on immobilized biotinylated DNA duplexes; buffer, salt, pH and temperature not given in the material (details in Additional file 2)
# Conditions: protein: recombinant; chain copies: 2; label: 5' biotin on strand 1; blunt
binder,measurement,value
B1,Kd,0.63 ± 0.04 nM
B2,Kd,386 ± 7.3 nM
B3,Kd,282 ± 5.1 nM
B4,Kd,4.64 ± 0.03 nM
B5,Kd,4.18 ± 0.41 nM
B6,Kd,35.7 ± 0.52 nM

# From publication PMC3305660, “Regulatory interactions for iron homeostasis in Aspergillus fumigatus inferred by a Systems Biology approach”
